Measured values published in PMC7018950.
Values belong to the substance of their own block, whether it stands above or below them.

What was measured:
[1] = biological target: His6-tagged snapdragon CHS (Antirrhinum majus (snapdragon)) (UniProt P06515)
[2] = biological target: His6-tagged snapdragon CHS (Antirrhinum majus (snapdragon)) (UniProt P06515); assay: cross-linking; His6-AmCHIL 10 µM and His6-AmCHS 5 µM with 4 mM BS3 at pH 7.5 for 5 min; SDS-PAGE and immunoblot; band of 70 kDa
[3] = biological target: PpCHS (GAL4 two-hybrid fusion) (Physcomitrella patens)
[4] = biological target: His6-tagged CHS of ginkgo (Ginkgo biloba); assay: BLI; BLItz; His6-tagged CHS immobilised on anti-His6 sensors, GST-tagged CHIL loaded; 100 mM HEPES-NaOH pH 7.5; 1:1 binding model; apparent KD
[5] = biological target: His6-tagged Ginkgo biloba chalcone synthase (GbCHS) (Ginkgo biloba); assay: BLI; BLItz; His6-tagged CHS immobilised on anti-His6 sensors, GST-tagged CHIL loaded (30-150 s), wash (150-270 s); 100 mM HEPES-NaOH, pH 7.5; 1:1 binding model; apparent KD
[6] = biological target: His6-tagged Hydrangea macrophylla chalcone synthase (HmCHS) (Hydrangea macrophylla) (UniProt O82144); assay: as above
Chain of His6-tagged Hydrangea macrophylla chalcone synthase (HmCHS) (Hydrangea macrophylla) (O82144 whole entry): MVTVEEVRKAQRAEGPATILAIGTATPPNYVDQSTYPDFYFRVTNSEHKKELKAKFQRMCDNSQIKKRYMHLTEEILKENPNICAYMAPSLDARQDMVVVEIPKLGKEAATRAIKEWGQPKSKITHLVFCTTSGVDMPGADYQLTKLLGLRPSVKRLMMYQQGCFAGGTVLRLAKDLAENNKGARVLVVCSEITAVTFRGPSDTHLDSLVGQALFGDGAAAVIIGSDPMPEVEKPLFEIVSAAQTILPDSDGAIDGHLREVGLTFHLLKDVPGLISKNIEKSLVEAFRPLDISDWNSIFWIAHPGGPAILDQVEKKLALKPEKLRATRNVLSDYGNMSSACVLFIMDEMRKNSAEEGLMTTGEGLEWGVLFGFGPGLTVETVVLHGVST

[7] = biological target: His6-tagged Physcomitrella patens chalcone synthase (PpCHS) (Physcomitrella patens); assay: as above
Chain of His6-tagged Physcomitrella patens chalcone synthase (PpCHS) (Physcomitrella patens) (Q2VAZ3 entry or part of it): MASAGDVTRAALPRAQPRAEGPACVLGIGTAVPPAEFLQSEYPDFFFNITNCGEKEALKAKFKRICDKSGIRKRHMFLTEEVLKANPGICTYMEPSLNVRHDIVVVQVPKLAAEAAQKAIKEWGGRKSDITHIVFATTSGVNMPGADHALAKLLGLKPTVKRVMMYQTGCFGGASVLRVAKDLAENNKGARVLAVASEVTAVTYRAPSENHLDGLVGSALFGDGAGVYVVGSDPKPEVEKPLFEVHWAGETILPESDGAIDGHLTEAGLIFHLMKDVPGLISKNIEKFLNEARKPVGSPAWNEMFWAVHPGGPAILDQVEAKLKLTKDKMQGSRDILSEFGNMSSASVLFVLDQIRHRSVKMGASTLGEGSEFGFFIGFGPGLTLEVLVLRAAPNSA

[8] = biological target: His6-tagged Selaginella moellendorffii chalcone synthase (SmCHS) (Selaginella moellendorffii); assay: as above
[9] = biological target: His6-tagged morning glory chalcone synthase D (InCHS-D) (Ipomoea nil) (UniProt O22045); assay: as above
Chain of His6-tagged morning glory chalcone synthase D (InCHS-D) (Ipomoea nil) (O22045 whole entry): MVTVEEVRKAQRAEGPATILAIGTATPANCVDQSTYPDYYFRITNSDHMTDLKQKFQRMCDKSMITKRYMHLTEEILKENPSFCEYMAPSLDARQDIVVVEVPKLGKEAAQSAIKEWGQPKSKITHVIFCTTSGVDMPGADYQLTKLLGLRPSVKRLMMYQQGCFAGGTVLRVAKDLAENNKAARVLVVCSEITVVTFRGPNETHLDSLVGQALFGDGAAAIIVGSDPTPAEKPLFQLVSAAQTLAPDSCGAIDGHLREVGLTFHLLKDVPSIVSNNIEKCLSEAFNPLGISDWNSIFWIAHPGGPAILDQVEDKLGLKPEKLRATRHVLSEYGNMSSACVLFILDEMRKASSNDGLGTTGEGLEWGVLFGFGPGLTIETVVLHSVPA

[10] = biological target: His6-tagged rice chalcone synthase 1 (OsCHS-1) (Oryza sativa) (UniProt Q2R3A1); assay: as above
Chain of His6-tagged rice chalcone synthase 1 (OsCHS-1) (Oryza sativa) (Q2R3A1 whole entry): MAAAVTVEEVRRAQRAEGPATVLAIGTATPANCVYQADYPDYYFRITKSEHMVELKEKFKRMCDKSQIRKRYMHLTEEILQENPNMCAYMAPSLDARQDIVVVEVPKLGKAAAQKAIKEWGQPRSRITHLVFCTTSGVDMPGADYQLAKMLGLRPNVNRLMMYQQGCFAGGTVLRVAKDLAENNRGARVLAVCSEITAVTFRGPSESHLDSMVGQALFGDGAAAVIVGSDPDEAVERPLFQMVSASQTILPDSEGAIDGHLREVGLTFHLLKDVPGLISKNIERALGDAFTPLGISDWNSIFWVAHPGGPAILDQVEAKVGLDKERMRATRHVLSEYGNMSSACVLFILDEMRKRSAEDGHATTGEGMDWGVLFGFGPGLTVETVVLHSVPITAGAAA

[11] = biological target: His6-tagged snapdragon chalcone synthase (His6-AmCHS) (Antirrhinum majus) (UniProt P06515); assay: as above
Chain of His6-tagged snapdragon chalcone synthase (His6-AmCHS) (Antirrhinum majus) (P06515 whole entry): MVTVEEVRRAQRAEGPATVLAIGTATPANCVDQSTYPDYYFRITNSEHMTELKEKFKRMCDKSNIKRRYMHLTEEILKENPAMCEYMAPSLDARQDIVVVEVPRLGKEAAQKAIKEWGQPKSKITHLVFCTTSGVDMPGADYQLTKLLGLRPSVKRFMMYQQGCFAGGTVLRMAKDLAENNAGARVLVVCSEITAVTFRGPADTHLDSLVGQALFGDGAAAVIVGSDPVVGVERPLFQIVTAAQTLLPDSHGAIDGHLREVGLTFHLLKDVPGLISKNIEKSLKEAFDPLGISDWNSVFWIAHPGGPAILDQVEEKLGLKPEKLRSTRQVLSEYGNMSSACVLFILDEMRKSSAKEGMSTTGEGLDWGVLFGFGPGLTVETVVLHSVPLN

[12] = biological target: His6-tagged soybean chalcone synthase isozyme 7 (GmCHS-7) (Glycine max) (UniProt P30081); assay: as above
Chain of His6-tagged soybean chalcone synthase isozyme 7 (GmCHS-7) (Glycine max) (P30081 whole entry): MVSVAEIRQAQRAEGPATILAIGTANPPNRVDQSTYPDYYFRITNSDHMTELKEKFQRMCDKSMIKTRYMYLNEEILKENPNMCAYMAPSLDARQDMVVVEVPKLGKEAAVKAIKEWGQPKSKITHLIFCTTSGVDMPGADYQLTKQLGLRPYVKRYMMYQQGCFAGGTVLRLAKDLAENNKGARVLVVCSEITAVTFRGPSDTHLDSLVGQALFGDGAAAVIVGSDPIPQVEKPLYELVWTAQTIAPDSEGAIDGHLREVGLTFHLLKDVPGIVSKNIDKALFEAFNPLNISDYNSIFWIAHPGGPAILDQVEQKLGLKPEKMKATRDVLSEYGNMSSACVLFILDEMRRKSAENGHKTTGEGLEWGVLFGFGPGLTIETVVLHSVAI

[13] = biological target: His6-tagged soybean chalcone synthase isozyme 1 (GmCHS-1) (Glycine max) (UniProt P24826); assay: as above
Chain of His6-tagged soybean chalcone synthase isozyme 1 (GmCHS-1) (Glycine max) (P24826 whole entry): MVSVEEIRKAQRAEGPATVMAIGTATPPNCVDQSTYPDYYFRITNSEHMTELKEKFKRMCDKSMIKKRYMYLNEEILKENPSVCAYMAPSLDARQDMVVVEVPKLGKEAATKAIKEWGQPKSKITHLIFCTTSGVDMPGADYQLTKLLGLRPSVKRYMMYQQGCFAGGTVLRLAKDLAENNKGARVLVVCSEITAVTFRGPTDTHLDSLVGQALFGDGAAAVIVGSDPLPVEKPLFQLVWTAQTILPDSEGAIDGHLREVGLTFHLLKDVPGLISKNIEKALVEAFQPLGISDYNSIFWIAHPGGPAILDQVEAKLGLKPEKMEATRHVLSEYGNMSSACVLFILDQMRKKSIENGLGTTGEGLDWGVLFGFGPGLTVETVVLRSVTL

Chain of His6-tagged snapdragon CHS (Antirrhinum majus (snapdragon)) (P06515 whole entry, the tested form may be a part): as the sequence (P06515 whole entry) above

Substance: His6-tagged snapdragon CHIL (natural protein)
E value (chalconoid excess over CTAL) of the reaction catalysed by 0.1 µM AmCHS in the presence of 1 µM CHIL (+18% without CHIL) [1]: 80% | amount of THC and naringenin (chalconoids) formed by 0.1 µM AmCHS with 1.0 µM AmCHIL against without, with a substantial decrease in CTAL formation [1]: 1.7 fold | stoichiometry N (CHIL monomer per CHS monomer) [2]: 1

Substance: PpCHIL (GAL4 two-hybrid fusion) (natural protein)
E value (chalconoid excess over CTAL) of the reaction catalysed by 0.1 µM PpCHS in the presence of 1 µM CHIL (−67% without CHIL); purified recombinant proteins [3]: 90%

Substance: glutathione S-transferase-tagged CHIL of ginkgo (natural protein)
Kd [4]: 126 nM

Substance: glutathione S-transferase-tagged Ginkgo biloba chalcone isomerase-like protein (GbCHIL) (natural protein)
koff [5]: 0.000154 s⁻¹ | kon [5]: 20200 M⁻¹ s⁻¹

Substance: glutathione S-transferase-tagged Physcomitrella patens chalcone isomerase-like protein A (PpCHIL-A) (natural protein)
Kd [7]: 2.69 nM | koff [7]: 0.000319 s⁻¹ | kon [7]: 118000 M⁻¹ s⁻¹

Substance: glutathione S-transferase-tagged Selaginella moellendorffii chalcone isomerase-like protein (SmCHIL) (natural protein)
Kd [8]: 56.6 nM | koff [8]: 0.000674 s⁻¹ | kon [8]: 11900 M⁻¹ s⁻¹

Substance: glutathione S-transferase-tagged snapdragon chalcone isomerase-like protein (AmCHIL) (natural protein)
Kd [11]: 62.6 nM | koff [11]: 0.00183 s⁻¹ | kon [11]: 29300 M⁻¹ s⁻¹

Continued, values first:

Kd [6]: 24.1 nM | koff [6]: 0.00277 s⁻¹ | kon [6]: 115000 M⁻¹ s⁻¹
Substance: glutathione S-transferase-tagged Hydrangea macrophylla chalcone isomerase-like protein (HmCHIL) (natural protein)

Kd [9]: 1.05 nM | koff [9]: 0.000206 s⁻¹ | kon [9]: 196000 M⁻¹ s⁻¹
Substance: glutathione S-transferase-tagged morning glory chalcone isomerase-like protein (InCHIL) (natural protein)

Kd [10]: 64.4 nM | koff [10]: 0.000672 s⁻¹ | kon [10]: 10400 M⁻¹ s⁻¹
Substance: glutathione S-transferase-tagged rice chalcone isomerase-like protein A (OsCHIL-A) (natural protein)

Kd [12]: 19.3 nM | koff [12]: 0.00113 s⁻¹ | kon [12]: 58300 M⁻¹ s⁻¹ | Kd [13]: 7.46 nM | koff [13]: 0.000381 s⁻¹ | kon [13]: 51000 M⁻¹ s⁻¹
Substance: glutathione S-transferase-tagged soybean chalcone isomerase-like protein (GmCHIL) (natural protein)
